According to publication PMC13138755, “Potential Rad54 separation of function mutation highlights unique roles during homologous recombination”:

Target: T1, Rad54 (Saccharomyces cerevisiae, UniProt P32863 1-898)
T1 sequence: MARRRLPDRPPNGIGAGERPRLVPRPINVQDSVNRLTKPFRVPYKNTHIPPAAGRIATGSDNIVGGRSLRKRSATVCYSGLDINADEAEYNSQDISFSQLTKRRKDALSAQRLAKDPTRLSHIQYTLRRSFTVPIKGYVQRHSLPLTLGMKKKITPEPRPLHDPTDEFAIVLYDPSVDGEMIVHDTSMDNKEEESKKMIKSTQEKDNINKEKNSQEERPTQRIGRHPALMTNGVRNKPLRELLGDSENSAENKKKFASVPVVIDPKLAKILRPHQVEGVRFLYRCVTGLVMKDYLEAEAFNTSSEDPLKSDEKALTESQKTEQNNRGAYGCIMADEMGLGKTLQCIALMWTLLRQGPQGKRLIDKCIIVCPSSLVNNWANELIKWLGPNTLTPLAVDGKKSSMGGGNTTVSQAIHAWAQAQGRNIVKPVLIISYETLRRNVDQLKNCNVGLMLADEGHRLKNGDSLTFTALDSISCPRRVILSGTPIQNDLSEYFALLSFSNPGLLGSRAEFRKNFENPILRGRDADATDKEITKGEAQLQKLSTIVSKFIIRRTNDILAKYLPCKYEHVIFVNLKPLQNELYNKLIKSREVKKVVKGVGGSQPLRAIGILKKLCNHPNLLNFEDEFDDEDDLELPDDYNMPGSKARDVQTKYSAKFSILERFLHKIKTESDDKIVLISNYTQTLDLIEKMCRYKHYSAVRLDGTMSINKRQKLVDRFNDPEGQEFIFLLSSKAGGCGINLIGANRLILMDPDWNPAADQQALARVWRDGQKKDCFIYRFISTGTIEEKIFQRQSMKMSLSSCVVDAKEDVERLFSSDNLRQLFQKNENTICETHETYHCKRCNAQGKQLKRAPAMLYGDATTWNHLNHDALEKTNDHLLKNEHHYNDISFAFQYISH
Experiment: EMSA; apparent Kd; Hill fit; 3 mM Mg2+; EMSA: 35 mM Tris-Cl pH 7.5, 3 mM MgCl2, 50 mM KCl, 1 mM DTT, 10% glycerol, 10 nM DNA, 30 C, 5 min, 8% native PAGE in 0.5x TBE; DNA curtains: HR buffer (composition not given), 10 nM GFP-Rad54, flow 0.2 mL/min
Settings: protein: recombinant; tags: GFP-GST (N-term); label: Atto647N 5' on strand 1; blunt

B1: 90 bp dsDNA (90-mer) (dsDNA)
DNA 1: GATGTTCTGCTGGATATGCACTTTTCCGGGCTGACGTACACCGTGCTCAGCCTGTTTTTCAGCGATCCGGATATGCATCCGCTGGATTTC
DNA 2: GAAATCCAGCGGATGCATATCCGGATCGCTGAAAAACAGGCTGAGCACGGTGTACGTCAGCCCGGAAAAGTGCATATCCAGCAGAACATC
- Kd: 21 nM
